Test [1] has as its target T1, human flt3 on BAF/hflt3 cells (BAF-BO3 cells transfected with human flt3 cDNA) (human, UniProt P36888 27-993).
T1 construct: whole, on cells; also called flt3 Receptor
T1 sequence (looked up): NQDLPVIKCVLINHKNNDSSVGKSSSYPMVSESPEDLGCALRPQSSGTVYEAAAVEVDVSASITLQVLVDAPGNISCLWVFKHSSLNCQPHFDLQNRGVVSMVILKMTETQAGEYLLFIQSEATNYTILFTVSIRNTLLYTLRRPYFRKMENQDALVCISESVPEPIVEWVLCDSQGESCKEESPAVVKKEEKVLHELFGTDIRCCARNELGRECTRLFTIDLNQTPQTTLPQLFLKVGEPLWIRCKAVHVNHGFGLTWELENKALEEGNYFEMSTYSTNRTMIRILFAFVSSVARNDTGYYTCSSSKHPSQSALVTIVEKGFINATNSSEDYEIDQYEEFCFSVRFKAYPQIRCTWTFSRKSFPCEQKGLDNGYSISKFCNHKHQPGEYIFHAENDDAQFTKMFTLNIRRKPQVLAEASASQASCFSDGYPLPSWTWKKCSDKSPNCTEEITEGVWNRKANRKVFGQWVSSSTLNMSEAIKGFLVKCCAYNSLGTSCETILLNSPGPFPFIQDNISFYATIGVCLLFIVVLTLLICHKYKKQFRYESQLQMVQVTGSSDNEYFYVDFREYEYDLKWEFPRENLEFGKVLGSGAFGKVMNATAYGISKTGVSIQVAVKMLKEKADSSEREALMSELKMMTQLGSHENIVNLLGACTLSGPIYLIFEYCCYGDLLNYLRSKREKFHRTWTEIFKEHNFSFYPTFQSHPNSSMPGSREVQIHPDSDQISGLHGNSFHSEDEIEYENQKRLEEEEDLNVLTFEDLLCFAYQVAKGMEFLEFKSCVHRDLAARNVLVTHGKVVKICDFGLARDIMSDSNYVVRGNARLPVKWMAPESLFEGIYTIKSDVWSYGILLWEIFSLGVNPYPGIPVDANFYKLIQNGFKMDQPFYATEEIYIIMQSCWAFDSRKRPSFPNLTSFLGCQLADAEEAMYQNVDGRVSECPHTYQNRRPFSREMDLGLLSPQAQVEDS
The experiment in a line: Kdi: inhibition of binding of radiolabelled yeast-derived flt3-L to BAF-BO3 cells transfected with human flt3. How it is done: (§1) Binding assays were performed using a phthalate oil separation method as described previously for murine ¹²⁵I-GM-CSF (Park et al., J. Biol. Chem. 261:4177-4183 (1986)). Briefly, BAF-BO3 cells transfected with human flt3 cDNA (0.5-1×10⁶) were incubated with serial dilutions of ¹²⁵I-flt3-L in binding medium (RPMI 1640, 2.5% bovine serum albumin, 0.2% NaN3, 20 mM Hepes, pH 7.2) in 96 well microtiter plates maintained on a mini-orbital shaker (Bellco) at 37° C. for 90 minutes. Inhibition binding assays were carried out by holding the radiolabeled flt3-L concentration constant at 0.3 nM, while the concentration of unlabeled competitor proteins ranged from 150 nM to 0.001 nM. The ratio of Kdi of mutant to wild type flt3-L, determined in at least duplicate, in a given assay was averaged over at least three independent assays and the standard error of the mean (SEM) reported. […]
Specific activity of purified mutant or wild type protein was calculated as the ratio of proliferation activity in BAF/hflt3 cells (units/ml) to concentration of flt3-L protein as determined by amino acid composition (ng/ml). The ratio of specific activity of mutant to wild type flt3-L, determined in duplicate, in a given assay was averaged over at least three independent assays and the standard error of the mean (SEM) is reported. […]

Test [2] addresses T1, human flt3 on BAF/hflt3 cells (BAF-BO3 …). The test is described as follows: cell-based or functional assay.
Test [3] has the same target. The test is described as follows: inhibition of 125I-flt3-L binding to BAF/hflt3 cells, purified protein. How it is done:
Binding assays were performed using a phthalate oil separation method as described previously for murine ¹²⁵I-GM-CSF (Park et al., J. Biol. Chem. 261:4177-4183 (1986)). Briefly, BAF-BO3 cells transfected with human flt3 cDNA (0.5-1×10⁶) were incubated with serial dilutions of ¹²⁵I-flt3-L in binding medium (RPMI 1640, 2.5% bovine serum albumin, 0.2% NaN3, 20 mM Hepes, pH 7.2) in 96 well microtiter plates maintained on a mini-orbital shaker (Bellco) at 37° C. for 90 minutes. Inhibition binding assays were carried out by holding the radiolabeled flt3-L concentration constant at 0.3 nM, while the concentration of unlabeled competitor proteins ranged from 150 nM to 0.001 nM. The ratio of Kdi of mutant to wild type flt3-L, determined in at least duplicate, in a given assay was averaged over at least three independent assays and the standard error of the mean (SEM) reported. […] For this assay, cells expressing human flt3 (BAF/hflt3 cells) were constructed from BAF/B03 cells, using a procedure previously described for producing BAF/B03 cells expressing the murine flt3 (Lyman et al., Cell 75:1157-1167 (1993)). Expression of human flt3 by BAF/hflt3 cells was confirmed by examining the capacity of the cells to proliferate in response to soluble flt3-L, and by flow cytometric analysis using biotinylated flt3-L.
^aThe specific activity of purified mutant or wild type protein was determined by taking the ratio of proliferation activity in BAF/hflt3 cells (units/ml) to concentration of flt3-L protein as determined by amino acid composition (ng/ml). The ratio of specific activity of mutant to wild type flt3-L is averaged over three independent assays, and the standard error of the mean (SEM) is reported. ^bThe Kdifor wild type protein is 61 ± 19 pM (n = 2). The ratio of Kₐᵢ of mutant to wild type flt3-L is averaged over two independent assays and the standard deviation is reported.

The target is the same in test [4]. The experiment in a line: Kdi: inhibition of 125I-flt3-L binding to BAF/hflt3 cells, the assays of Table 3.
For test [5] the target is unchanged. The experiment in a line: Kdi: inhibition by unlabelled flt3-L of 0.3 nM 125I-flt3-L binding to BAF-BO3 cells transfected with human flt3 (n=7). The protocol:
as §1
(§2) The ordinate is the Log¹⁰ of the value relative to wild type flt3-L, and the abscissa is the flt3-L mutant designation. […] The ratio of Kₐᵢ mutant to wild type flt3-L, determined in at least duplicate, in a given assay is averaged over at least three independent assays and the standard error of the mean (SEM) is reported.

Test [6] has the same target. The test is described as follows: direct binding of serial dilutions of 125I-flt3-L to BAF-BO3 cells transfected with human flt3, 37 C, phthalate oil separation (n=7). How it is done:
as §1, §2

B1: recombinant CHO-derived human flt3-L, which has native human sequence (ligand)
chain: TQDCSFQHSPISSDFAVKIRELSDYLLQDYPVTVASNLQDEELCGGLWRLVLAQRWMERLKTVAGSKMQGLLERVNTEIHFVTKCAFQPPPSCLRFVQTNISRLLQETSEQLVALKPWITRQNFSRCLELQCQPDSSTLPPPWSPRPLEATAPTAPQP
Regarding B1, the affinity in test [1], expressed as Ki, was 0.08 nM.

B2: wild type flt3-L (yeast-derived recombinant human flt3 Ligand) (ligand)
chain: LSGTQDCSFQHSPISSDFAVKIRELSDYLLQDYPVTVASNLQDEELCGGLWRLVLAQRWMERLKTVAGSKMQGLLERVNTEIHFVTKCAFQPPPSCLRFVQTNISRLLQETSEQLVALKPWITRQNFARCLELQCQPDSSTLPPPWSPRPLEATAP
notes: Secreted from yeast (alpha-factor leader, final plasmid PIXY797); Leu-Ser-Gly stands before Thr1 of the mature protein (80% of chains; 20% begin at Ser); Noncovalent dimer (dimer peak collected); also called WT; 125I-flt3-L (radiolabelled form)
As to B2, in test [2], the “Sp.Ac. MUT / Sp.Ac. Wt (BAF/hflt3 cell proliferation units/ml per ng/ml purified protein)” value is 1 ratio to wild type. The “Kai MUT / Kai Wt” value in test [3] is 1 ratio to wild type. Further, the Ki in test [4] was found to be 0.061 nM; in test [5], 0.09 nM. In addition, the Kd in test [6] turned out to be 0.13 nM.

(Values after US20020111475A1 (IMMUNEX, published 2002).)
